In paper PMC3380823:

What was measured:
[1] = target: recombinant phospholipase C of Chlamydomonas reinhardtii (CrPLC), wild type (Chlamydomonas reinhardtii); assay: SEC; HiLoad 16/60 Superdex 200 prep grade and Superose 12 10/300 GL analytical columns, PBS, 1 ml/min, 4°C, no reducing agent; calibrated with molecular weight standards; 5 to 50 µM on the analytical column; monomer and dimer fractions reloaded
[2] = target: CrPLC C7A mutant (Chlamydomonas reinhardtii); assay: as above

Row | stoichiometry N [1] | percent of dimerization disrupted [2] [%] | Substance
1 | 2 |  | recombinant phospholipase C of Chlamydomonas reinhardtii (CrPLC), wild type (enzyme)
2 |  | 95 | CrPLC C7A mutant (enzyme)
